These results are taken from article PMC11580989.

The target in this assay is Rad52^ΔN* (Saccharomyces cerevisiae). Kind of assay: mass photometry.

In general, stoichiometry N refers to the number of molecules, sites or subunits per partner or assembly. In turn, “Saccharomyces cerevisiae Rad51 (from UniProt P25454 1-400) (natural protein)” gave a stoichiometry N of 1.
